According to publication PMC9482650, “Quantitative fragmentomics allow affinity mapping of interactomes” (Nature Communications, 2022):
Blank lines part the entries; values can stand above or below the binder they belong to.

Assays:
Experiment in all cases: holdup assay
Parameters in all cases: key: below the threshold = too weak to quantify, mostly under pKd 3.1 to 4
PARD3_3, Q8TEW0 = biological target: PARD3_3, Q8TEW0
Inadl_3, Q8NI35 = biological target: Inadl_3, Q8NI35
TJP2_1, Q9UDY2 = biological target: TJP2_1, Q9UDY2
AHNAK1, Q09666 = biological target: AHNAK1, Q09666
GRIP1_2, Q9Y3R0 = biological target: T1, GRIP1_2, Q9Y3R0
T1 sequence (Q9Y3R0 145-248, limits assumed, looked up): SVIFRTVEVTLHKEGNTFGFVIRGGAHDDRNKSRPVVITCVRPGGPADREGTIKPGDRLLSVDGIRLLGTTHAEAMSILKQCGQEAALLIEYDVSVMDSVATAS

GRIP2_3, Q9C0E4 = biological target: GRIP2_3, Q9C0E4
SCRIB_2, Q14160 = biological target: SCRIB_2, Q14160
LIN7B, Q9HAP6 = biological target: T2, LIN7B, Q9HAP6
T2 sequence (Q9HAP6 88-185, limits assumed, looked up): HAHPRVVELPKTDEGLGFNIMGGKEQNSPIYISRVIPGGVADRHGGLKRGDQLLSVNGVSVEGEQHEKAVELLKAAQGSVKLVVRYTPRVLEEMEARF

Inadl_4, Q8NI35 = biological target: Inadl_4, Q8NI35
LNX2_3, Q8N448 = biological target: T3, LNX2_3, Q8N448
T3 sequence (Q8N448 463-564, limits assumed, looked up): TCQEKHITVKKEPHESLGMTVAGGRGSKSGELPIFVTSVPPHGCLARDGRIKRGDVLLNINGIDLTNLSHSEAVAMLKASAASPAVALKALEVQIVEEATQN

TX1BP3, O14907 = biological target: T4, TX1BP3, O14907
T4 sequence (O14907 10-122, limits assumed, looked up): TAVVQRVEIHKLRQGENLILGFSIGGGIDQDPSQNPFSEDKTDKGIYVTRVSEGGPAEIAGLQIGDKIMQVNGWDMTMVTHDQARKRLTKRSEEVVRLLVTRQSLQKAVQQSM

GRASP, Q7Z6J2 = biological target: GRASP, Q7Z6J2
PICK1, Q9NRD5 = biological target: PICK1, Q9NRD5
Inadl_10, Q8NI35 = biological target: Inadl_10, Q8NI35
HTRA1, Q92743 = biological target: HTRA1, Q92743
SHANK1, Q9Y566 = biological target: T5, SHANK1, Q9Y566
T5 sequence (Q9Y566 658-767, limits assumed, looked up): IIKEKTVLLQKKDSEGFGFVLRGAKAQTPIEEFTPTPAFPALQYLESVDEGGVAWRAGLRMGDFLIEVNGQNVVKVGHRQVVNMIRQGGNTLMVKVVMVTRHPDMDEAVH

SNTB1, Q13884 = biological target: T6, SNTB1, Q13884
T6 sequence (Q13884 107-205, limits assumed, looked up): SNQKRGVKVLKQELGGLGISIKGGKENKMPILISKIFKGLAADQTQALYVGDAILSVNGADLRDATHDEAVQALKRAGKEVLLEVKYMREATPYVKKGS

PDZD2_2, O15018 = biological target: T7, PDZD2_2, O15018
T7 sequence (O15018 329-429, limits assumed, looked up): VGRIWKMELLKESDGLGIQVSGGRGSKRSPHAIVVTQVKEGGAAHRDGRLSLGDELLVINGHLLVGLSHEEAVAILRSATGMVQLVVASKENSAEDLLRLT

PDZRN3_1, Q9UPQ7 = biological target: T8, PDZRN3_1, Q9UPQ7
T8 sequence (Q9UPQ7 244-349, limits assumed, looked up): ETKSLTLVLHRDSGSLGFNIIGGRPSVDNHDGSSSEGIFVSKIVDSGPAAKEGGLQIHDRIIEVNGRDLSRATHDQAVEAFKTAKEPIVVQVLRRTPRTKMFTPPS

PTPN13_1, Q12923 = biological target: T9, PTPN13_1, Q12923
T9 sequence (Q12923 1088-1188, limits assumed, looked up): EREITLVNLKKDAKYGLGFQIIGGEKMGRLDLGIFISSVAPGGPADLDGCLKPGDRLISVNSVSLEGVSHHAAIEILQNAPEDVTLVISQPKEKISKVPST

Inadl_8, Q8NI35 = biological target: Inadl_8, Q8NI35
ARHGEF11, O15085 = biological target: T10, ARHGEF11, O15085
T10 sequence (O15085 42-136, limits assumed, looked up): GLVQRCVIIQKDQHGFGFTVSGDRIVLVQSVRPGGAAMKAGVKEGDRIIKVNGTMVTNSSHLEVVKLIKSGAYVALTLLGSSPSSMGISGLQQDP

Inadl_5, Q8NI35 = biological target: Inadl_5, Q8NI35
MAGI3_2, Q5TCQ9 = biological target: MAGI3_2, Q5TCQ9
LAP2, Q96RT1 = biological target: LAP2, Q96RT1
DFNB31_2, Q9P202 = biological target: T11, DFNB31_2, Q9P202
T11 sequence (Q9P202 274-371, limits assumed, looked up): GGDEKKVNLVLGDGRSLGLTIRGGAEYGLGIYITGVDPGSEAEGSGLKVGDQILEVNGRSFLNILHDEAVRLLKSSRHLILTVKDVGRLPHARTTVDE

[1] = plain residues with an end cap or a label only (N-terminal biotin on a linker: ado-ado)
[2] = plain residues with an end cap or a label only (N-terminal biotin on a linker: ahx)

Chain of Inadl_4, Q8NI35 (Q8NI35 547-651): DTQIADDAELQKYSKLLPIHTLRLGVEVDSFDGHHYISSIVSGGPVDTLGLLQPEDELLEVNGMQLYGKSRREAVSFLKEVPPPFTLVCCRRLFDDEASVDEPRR
Chain of Inadl_3, Q8NI35 (Q8NI35 359-469): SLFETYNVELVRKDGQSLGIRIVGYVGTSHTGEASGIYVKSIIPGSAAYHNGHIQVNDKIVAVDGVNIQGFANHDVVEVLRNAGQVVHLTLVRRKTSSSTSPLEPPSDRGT
Chain of AHNAK1, Q09666 (Q09666 4-100): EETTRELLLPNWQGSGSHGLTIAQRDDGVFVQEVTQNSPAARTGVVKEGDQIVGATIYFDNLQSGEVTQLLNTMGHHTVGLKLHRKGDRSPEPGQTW
Chain of MAGI3_2, Q5TCQ9 (Q5TCQ9 398-503): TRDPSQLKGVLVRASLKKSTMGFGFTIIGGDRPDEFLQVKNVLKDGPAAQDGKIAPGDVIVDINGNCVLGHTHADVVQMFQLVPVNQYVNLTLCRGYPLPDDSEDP
Chain of TJP2_1, Q9UDY2 (Q9UDY2 24-128): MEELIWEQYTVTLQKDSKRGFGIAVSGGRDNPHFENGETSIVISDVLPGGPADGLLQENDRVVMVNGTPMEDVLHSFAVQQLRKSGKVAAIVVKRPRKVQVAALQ
Chain of SCRIB_2, Q14160 (Q14160 857-960): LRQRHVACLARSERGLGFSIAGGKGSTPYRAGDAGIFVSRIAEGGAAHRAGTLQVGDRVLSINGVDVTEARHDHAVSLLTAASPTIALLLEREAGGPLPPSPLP
Chain of Inadl_8, Q8NI35 (Q8NI35 1425-1530): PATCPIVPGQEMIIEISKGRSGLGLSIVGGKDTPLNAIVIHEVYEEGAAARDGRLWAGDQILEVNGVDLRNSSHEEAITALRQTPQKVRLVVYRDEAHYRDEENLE
Chain of PICK1, Q9NRD5 (Q9NRD5 17-115): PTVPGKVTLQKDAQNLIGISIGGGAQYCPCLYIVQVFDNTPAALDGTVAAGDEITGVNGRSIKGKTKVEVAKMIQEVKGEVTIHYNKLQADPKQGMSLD
Chain of Inadl_5, Q8NI35 (Q8NI35 673-780): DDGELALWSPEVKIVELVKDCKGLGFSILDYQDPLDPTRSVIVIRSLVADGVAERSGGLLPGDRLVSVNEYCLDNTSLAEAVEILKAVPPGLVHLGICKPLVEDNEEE
Chain of GRIP2_3, Q9C0E4 (Q9C0E4 238-339): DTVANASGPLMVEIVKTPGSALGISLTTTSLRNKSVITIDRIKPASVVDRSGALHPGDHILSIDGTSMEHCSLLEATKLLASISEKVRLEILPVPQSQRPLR
Chain of HTRA1, Q92743 (Q92743 360-477): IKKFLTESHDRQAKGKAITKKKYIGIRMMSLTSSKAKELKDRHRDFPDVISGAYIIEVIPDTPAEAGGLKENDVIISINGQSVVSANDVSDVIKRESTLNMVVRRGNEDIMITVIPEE
Chain of PARD3_3, Q8TEW0 (Q8TEW0 582-685): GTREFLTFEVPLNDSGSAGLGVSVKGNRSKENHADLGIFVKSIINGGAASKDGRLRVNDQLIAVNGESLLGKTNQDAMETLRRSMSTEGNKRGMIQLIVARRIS
Chain of GRASP, Q7Z6J2 (Q7Z6J2 96-193): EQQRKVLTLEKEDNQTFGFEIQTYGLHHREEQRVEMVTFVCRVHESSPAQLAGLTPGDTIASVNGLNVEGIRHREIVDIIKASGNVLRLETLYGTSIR
Chain of Inadl_10, Q8NI35 (Q8NI35 1673-1763): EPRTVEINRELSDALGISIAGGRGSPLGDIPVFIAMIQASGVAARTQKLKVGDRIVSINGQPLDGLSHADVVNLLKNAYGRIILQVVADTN
Chain of LAP2, Q96RT1 (Q96RT1 other isoform, or with tags, fused parts or gaps): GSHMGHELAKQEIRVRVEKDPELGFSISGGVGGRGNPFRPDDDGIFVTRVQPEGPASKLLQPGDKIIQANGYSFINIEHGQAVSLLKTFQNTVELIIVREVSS

Binder: VLYPREGTEV [FOXI1, Q12951]
pKd (PARD3_3, Q8TEW0; [1]): below the threshold
pKd (Inadl_3, Q8NI35; [1]): 3.72
pKd (TJP2_1, Q9UDY2; [1]): 4
pKd (AHNAK1, Q09666; [1]): below the threshold
pKd (GRIP1_2, Q9Y3R0; [1]): below the threshold
pKd (GRIP2_3, Q9C0E4; [1]): below the threshold
pKd (SCRIB_2, Q14160; [1]): 4.16
pKd (LIN7B, Q9HAP6; [1]): below the threshold
pKd (Inadl_4, Q8NI35; [1]): below the threshold
pKd (LNX2_3, Q8N448; [1]): below the threshold
pKd (TX1BP3, O14907; [1]): 3.73
pKd (GRASP, Q7Z6J2; [1]): 4.31
pKd (PICK1, Q9NRD5; [1]): 4.21
pKd (Inadl_10, Q8NI35; [1]): below the threshold
pKd (HTRA1, Q92743; [1]): 4.64
pKd (SHANK1, Q9Y566; [1]): 3.49
pKd (SNTB1, Q13884; [1]): 3.97
pKd (PDZD2_2, O15018; [1]): 4.93
pKd (PDZRN3_1, Q9UPQ7; [1]): 4.46
pKd (PTPN13_1, Q12923; [1]): below the threshold
pKd (Inadl_8, Q8NI35; [1]): 3.82
pKd (ARHGEF11, O15085; [1]): 4.54
pKd (Inadl_5, Q8NI35; [1]): 3.83
pKd (MAGI3_2, Q5TCQ9; [1]): 4.52
pKd (LAP2, Q96RT1; [1]): 3.52
pKd (DFNB31_2, Q9P202; [1]): below the threshold

Binder: EKQAKGDTEF [CACYBP, Q9HB71]
pKd (PARD3_3, Q8TEW0; [2]): below the threshold
pKd (Inadl_3, Q8NI35; [2]): below the threshold
pKd (TJP2_1, Q9UDY2; [2]): below the threshold
pKd (AHNAK1, Q09666; [2]): below the threshold
pKd (GRIP1_2, Q9Y3R0; [2]): below the threshold
pKd (GRIP2_3, Q9C0E4; [2]): below the threshold
pKd (SCRIB_2, Q14160; [2]): below the threshold
pKd (LIN7B, Q9HAP6; [2]): below the threshold
pKd (Inadl_4, Q8NI35; [2]): below the threshold
pKd (LNX2_3, Q8N448; [2]): below the threshold
pKd (TX1BP3, O14907; [2]): below the threshold
pKd (GRASP, Q7Z6J2; [2]): below the threshold
pKd (PICK1, Q9NRD5; [2]): below the threshold
pKd (Inadl_10, Q8NI35; [2]): below the threshold
pKd (HTRA1, Q92743; [2]): below the threshold
pKd (SHANK1, Q9Y566; [2]): below the threshold
pKd (SNTB1, Q13884; [2]): below the threshold
pKd (PDZD2_2, O15018; [2]): below the threshold
pKd (PDZRN3_1, Q9UPQ7; [2]): below the threshold
pKd (PTPN13_1, Q12923; [2]): below the threshold
pKd (Inadl_8, Q8NI35; [2]): below the threshold
pKd (ARHGEF11, O15085; [2]): below the threshold
pKd (Inadl_5, Q8NI35; [2]): below the threshold
pKd (MAGI3_2, Q5TCQ9; [2]): below the threshold
pKd (LAP2, Q96RT1; [2]): below the threshold
pKd (DFNB31_2, Q9P202; [2]): below the threshold

Binder: MHIQEKGFHV [EPHA6, Q9UF33]
pKd (PARD3_3, Q8TEW0; [1]): below the threshold
pKd (Inadl_3, Q8NI35; [1]): below the threshold
pKd (TJP2_1, Q9UDY2; [1]): below the threshold
pKd (AHNAK1, Q09666; [1]): below the threshold
pKd (GRIP1_2, Q9Y3R0; [1]): below the threshold
pKd (GRIP2_3, Q9C0E4; [1]): below the threshold
pKd (SCRIB_2, Q14160; [1]): below the threshold
pKd (LIN7B, Q9HAP6; [1]): below the threshold
pKd (Inadl_4, Q8NI35; [1]): below the threshold
pKd (LNX2_3, Q8N448; [1]): below the threshold
pKd (TX1BP3, O14907; [1]): below the threshold
pKd (GRASP, Q7Z6J2; [1]): below the threshold
pKd (PICK1, Q9NRD5; [1]): 4.18
pKd (Inadl_10, Q8NI35; [1]): below the threshold
pKd (HTRA1, Q92743; [1]): 4.61
pKd (SHANK1, Q9Y566; [1]): below the threshold
pKd (SNTB1, Q13884; [1]): below the threshold
pKd (PDZD2_2, O15018; [1]): below the threshold
pKd (PDZRN3_1, Q9UPQ7; [1]): below the threshold
pKd (PTPN13_1, Q12923; [1]): below the threshold
pKd (Inadl_8, Q8NI35; [1]): below the threshold
pKd (ARHGEF11, O15085; [1]): below the threshold
pKd (Inadl_5, Q8NI35; [1]): below the threshold
pKd (MAGI3_2, Q5TCQ9; [1]): below the threshold
pKd (LAP2, Q96RT1; [1]): below the threshold
pKd (DFNB31_2, Q9P202; [1]): below the threshold

Other lines, results leading:

pKd (PARD3_3, Q8TEW0; [1]): below the threshold
pKd (Inadl_3, Q8NI35; [1]): below the threshold
pKd (TJP2_1, Q9UDY2; [1]): below the threshold
pKd (AHNAK1, Q09666; [1]): below the threshold
pKd (GRIP1_2, Q9Y3R0; [1]): below the threshold
pKd (GRIP2_3, Q9C0E4; [1]): below the threshold
pKd (SCRIB_2, Q14160; [1]): below the threshold
pKd (LIN7B, Q9HAP6; [1]): below the threshold
pKd (Inadl_4, Q8NI35; [1]): below the threshold
pKd (LNX2_3, Q8N448; [1]): below the threshold
pKd (TX1BP3, O14907; [1]): 4.07
pKd (GRASP, Q7Z6J2; [1]): below the threshold
pKd (PICK1, Q9NRD5; [1]): 4.18
pKd (Inadl_10, Q8NI35; [1]): below the threshold
pKd (HTRA1, Q92743; [1]): below the threshold
pKd (SHANK1, Q9Y566; [1]): below the threshold
pKd (SNTB1, Q13884; [1]): below the threshold
pKd (PDZD2_2, O15018; [1]): below the threshold
pKd (PDZRN3_1, Q9UPQ7; [1]): below the threshold
pKd (PTPN13_1, Q12923; [1]): below the threshold
pKd (Inadl_8, Q8NI35; [1]): 3.57
pKd (ARHGEF11, O15085; [1]): below the threshold
pKd (Inadl_5, Q8NI35; [1]): below the threshold
pKd (MAGI3_2, Q5TCQ9; [1]): 4.48
pKd (LAP2, Q96RT1; [1]): 3.48
pKd (DFNB31_2, Q9P202; [1]): below the threshold
Binder: TRKRSGEAAV [PFKM, P08237]

pKd (PARD3_3, Q8TEW0; [1]): 5.28
pKd (Inadl_3, Q8NI35; [1]): below the threshold
pKd (TJP2_1, Q9UDY2; [1]): 3.67
pKd (AHNAK1, Q09666; [1]): below the threshold
pKd (GRIP1_2, Q9Y3R0; [1]): 3.68
pKd (GRIP2_3, Q9C0E4; [1]): below the threshold
pKd (SCRIB_2, Q14160; [1]): 3.57
pKd (LIN7B, Q9HAP6; [1]): 3.89
pKd (Inadl_4, Q8NI35; [1]): below the threshold
pKd (LNX2_3, Q8N448; [1]): below the threshold
pKd (TX1BP3, O14907; [1]): below the threshold
pKd (GRASP, Q7Z6J2; [1]): 4.08
pKd (PICK1, Q9NRD5; [1]): below the threshold
pKd (Inadl_10, Q8NI35; [1]): below the threshold
pKd (HTRA1, Q92743; [1]): 4.49
pKd (SHANK1, Q9Y566; [1]): 3.82
pKd (SNTB1, Q13884; [1]): below the threshold
pKd (PDZD2_2, O15018; [1]): 4.86
pKd (PDZRN3_1, Q9UPQ7; [1]): below the threshold
pKd (PTPN13_1, Q12923; [1]): 3.5
pKd (Inadl_8, Q8NI35; [1]): below the threshold
pKd (ARHGEF11, O15085; [1]): 3.96
pKd (Inadl_5, Q8NI35; [1]): 3.51
pKd (MAGI3_2, Q5TCQ9; [1]): below the threshold
pKd (LAP2, Q96RT1; [1]): below the threshold
pKd (DFNB31_2, Q9P202; [1]): below the threshold
Binder: SLNANEVEWF [RNF130, Q86XS8]
